# Results taken from PMC3141246 (Nucleic Acids Research, 2011).
# B1: Rpp20, protein subunit of human nuclear RNase P (natural protein, UniProt O75817 1-140, looked up)
# chain: MAENREPRGAVEAELDPVEYTLRKRLPSRLPRRPNDIYVNMKTDFKAQLARCQKLLDGGARGQNACSEIYIHGLGLAINRAINIALQLQAGSFGSLQVAANTSTVELVDELEPETDTREPLTRIRNNSAIHIRVFRVTPK
# Target: the molecule itself
# Test: native gel or EMSA
protein,measurement,value
B1,binding result,binds
